According to paper PMC8055526:
Each block holds one molecule with its values, some of them ahead of it.

Assays:
sFlt-1 (Homo sapiens) = sFlt-1 (Homo sapiens) (UniProt P17948); conditions: cited from earlier work
human VEGF (human) [1] = target: human VEGF (human) (UniProt P15692)
human VEGF (human) [2] = target: human VEGF (human) (UniProt P15692); remark: listed apart in the source
mouse VEGF (mouse) = mouse VEGF (mouse) (UniProt Q00731)

UniProt P17948, sequence (P17948 27-1338): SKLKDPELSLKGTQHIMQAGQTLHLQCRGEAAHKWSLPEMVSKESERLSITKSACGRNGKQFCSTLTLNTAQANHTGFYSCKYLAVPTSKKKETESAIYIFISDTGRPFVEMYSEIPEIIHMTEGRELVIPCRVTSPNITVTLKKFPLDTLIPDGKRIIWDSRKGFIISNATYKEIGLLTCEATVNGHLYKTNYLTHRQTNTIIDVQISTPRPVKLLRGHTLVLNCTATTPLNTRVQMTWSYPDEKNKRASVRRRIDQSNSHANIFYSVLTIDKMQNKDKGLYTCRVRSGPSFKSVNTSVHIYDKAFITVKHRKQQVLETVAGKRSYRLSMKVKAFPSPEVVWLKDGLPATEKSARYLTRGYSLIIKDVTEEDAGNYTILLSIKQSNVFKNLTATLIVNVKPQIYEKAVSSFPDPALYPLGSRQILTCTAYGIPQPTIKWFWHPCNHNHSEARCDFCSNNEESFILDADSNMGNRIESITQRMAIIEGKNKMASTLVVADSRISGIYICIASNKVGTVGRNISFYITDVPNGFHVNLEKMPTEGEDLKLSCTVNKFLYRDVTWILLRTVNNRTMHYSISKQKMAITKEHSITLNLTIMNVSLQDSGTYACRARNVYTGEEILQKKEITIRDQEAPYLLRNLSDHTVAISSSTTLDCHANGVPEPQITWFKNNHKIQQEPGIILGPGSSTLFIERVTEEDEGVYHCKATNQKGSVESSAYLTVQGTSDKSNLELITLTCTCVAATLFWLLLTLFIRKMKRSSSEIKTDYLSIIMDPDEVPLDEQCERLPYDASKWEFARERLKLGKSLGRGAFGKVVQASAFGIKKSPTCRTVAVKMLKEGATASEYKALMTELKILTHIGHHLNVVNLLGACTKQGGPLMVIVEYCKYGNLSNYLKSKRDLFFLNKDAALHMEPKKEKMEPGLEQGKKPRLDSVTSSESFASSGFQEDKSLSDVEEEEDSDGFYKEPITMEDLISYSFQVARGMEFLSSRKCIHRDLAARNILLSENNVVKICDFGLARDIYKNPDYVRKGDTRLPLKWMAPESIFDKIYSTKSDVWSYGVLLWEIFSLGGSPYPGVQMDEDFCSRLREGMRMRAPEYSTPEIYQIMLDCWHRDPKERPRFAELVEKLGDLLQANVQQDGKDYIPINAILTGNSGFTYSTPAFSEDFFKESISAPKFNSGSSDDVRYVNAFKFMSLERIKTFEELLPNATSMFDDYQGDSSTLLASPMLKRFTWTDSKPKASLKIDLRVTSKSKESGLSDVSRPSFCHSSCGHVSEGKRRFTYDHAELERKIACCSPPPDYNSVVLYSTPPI

Molecule: VEGF (from UniProt P15692)
Kd (sFlt-1 (Homo sapiens)): 0.03 nM

VEGFR-2 phosphorylation in HUVECs with VEGF, human sFlt-1 and 2 times to 4 times molar excess of the antibody 27H6 (human VEGF (human) [1]): 89 % of maximum
VEGFR-2 phosphorylation in HUVECs with human VEGF, human sFlt-1 and a 4-fold molar excess of the antibody 21B3 (no letters) (human VEGF (human) [2]): 85 % of maximum
Molecule: human recombinant VEGFR-1/Flt-1 Fc chimera (from UniProt P17948-2 27-687) (Fc fusion)

VEGFR-2 phosphorylation in HUVECs with mouse VEGF, mouse sFlt-1 and a 10-fold molar excess of the antibody 21B3 (no letters) (mouse VEGF (mouse)): 85 % of maximum
B1: mouse recombinant VEGFR-1/Flt-1 Fc chimera (Fc fusion)
chain: YGSGSKLKVPELSLKGTQHVMQAGQTLFLKCRGEAAHSWSLPTTVSQEDKRLSITPPSACGRDNRQFCSTLTLDTAQANHTGLYTCRYLPTSTSKKKKAESSIYIFVSDAGSPFIEMHTDIPKLVHMTEGRQLIIPCRVTSPNVTVTLKKFPFDTLTPDGQRITWDSRRGFIIANATYKEIGLLNCEATVNGHLYQTNYLTHRQTNTILDVQIRPPSPVRLLHGQTLVLNCTATTELNTRVQMSWNYPGKATKRASIRQRIDRSHSHNNVFHSVLKINNVESRDKGLYTCRVKSGSSFQSFNTSVHVYEKGFISVKHRKQPVQETTAGRRSYRLSMKVKAFPSPEIVWLKDGSPATLKSARYLVHGYSLIIKDVTTEDAGDYTILLGIKQSRLFKNLTATLIVNVKPQIYEKSVSSLPSPPLYPLGSRQVLTCTVYGIPRPTITWLWHPCHHNHSKERYDFCTENEESFILDPSSNLGNRIESISQRMTVIEGTNKTVSTLVVADSQTPGIYSCRAFNKIGTVERNIKFYVTDVPNGFHVSLEKMPAEGEDLKLSCVVNKFLYRDITWILLRTVNNRTMHHSISKQKMATTQDYSITLNLVIKNVSLEDSGTYACRARNIYTGEDILRKTEVLVRDSEAPHLLQNLSDYEVSISGSTTLDCQARGVPAPQITWFKNNHKIQQEPGIILGPGNSTLFIERVTEEDEGVYRCRATNQKGAVESAAYLTVQGTSDKSNLE
